From the supplement of paper PMC9112550, “Optimization of the antimicrobial peptide Bac7 by deep mutational scanning” (BMC Biology, 2022)

system: Escherichia coli TOP10; test: shrunken log2 fold change of peptide-encoding DNA abundance (4.5 h post-induction vs induction); higher = less antimicrobial activity (less host growth inhibition); conditions: time post-induction: 4.5 h; library: site-saturation at positions 5, 18, 19, 20
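Further: peptides expressed intracellularly from a pBAD plasmid library in pooled LB shake-flask culture, induced with 0.3% L-arabinose, DNA abundance read by NGS, three biological replicates, DESeq2 with apeglm shrinkage.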

Row | Sequence | shrunken log2 fold change
1 | RRIRWRPPRLPRPRPRPWSGPRP | 0.076
2 | RRIRWRPPRLPRPRPRPGRRPRP | 0.106
3 | RRIRSRPPRLPRPRPRPMFIPRP | -0.212
4 | RRIRERPPRLPRPRPRPTIWPRP | -0.222
5 | RRIRERPPRLPRPRPRPSQRPRP | -0.0321
6 | RRIRMRPPRLPRPRPRPLYKPRP | -0.134
7 | RRIRHRPPRLPRPRPRPKYRPRP | -0.138
8 | RRIRDRPPRLPRPRPRPCHNPRP | -0.184
9 | RRIRARPPRLPRPRPRPNFAPRP | 0.467
10 | RRIRPRPPRLPRPRPRPPGNPRP | 0.105
11 | RRIRIRPPRLPRPRPRPCFGPRP | -0.415
12 | RRIRFRPPRLPRPRPRPRFVPRP | 0.181
13 | RRIRCRPPRLPRPRPRPFMSPRP | 0.0579
14 | RRIRERPPRLPRPRPRPYGDPRP | -0.218
15 | RRIRLRPPRLPRPRPRPSPQPRP | 0.362
16 | RRIRSRPPRLPRPRPRPNKIPRP | -0.294
17 | RRIRIRPPRLPRPRPRPHFPPRP | 0.00276
18 | RRIRQRPPRLPRPRPRPMHKPRP | 0.0742
19 | RRIRRRPPRLPRPRPRPQYHPRP | -0.145
20 | RRIRLRPPRLPRPRPRPQDLPRP | -0.0513
21 | RRIRHRPPRLPRPRPRPDYVPRP | -0.165
22 | RRIRCRPPRLPRPRPRPCLAPRP | -0.257
23 | RRIRVRPPRLPRPRPRPTMQPRP | 0.158
24 | RRIRARPPRLPRPRPRPVSQPRP | 0.385
25 | RRIRERPPRLPRPRPRPHWIPRP | -0.117

Row | Sequence | shrunken log2 fold change
26 | RRIRIRPPRLPRPRPRPPMDPRP | -0.372
27 | RRIRARPPRLPRPRPRPYDKPRP | -0.865
28 | RRIRGRPPRLPRPRPRPGKQPRP | 0.0206
29 | RRIRFRPPRLPRPRPRPQNCPRP | -0.195
30 | RRIRMRPPRLPRPRPRPWSAPRP | 0.149
31 | RRIRCRPPRLPRPRPRPNSAPRP | 0.0338
32 | RRIRIRPPRLPRPRPRPLQRPRP | -0.106
33 | RRIRYRPPRLPRPRPRPMYIPRP | -0.0194
34 | RRIRNRPPRLPRPRPRPYRGPRP | -0.0134
35 | RRIRRRPPRLPRPRPRPTMEPRP | -0.0829
36 | RRIRTRPPRLPRPRPRPGIMPRP | -0.452
37 | RRIRNRPPRLPRPRPRPPPYPRP | 0.534
38 | RRIRNRPPRLPRPRPRPTMYPRP | -0.486
39 | RRIRQRPPRLPRPRPRPSFSPRP | -0.443
40 | RRIRFRPPRLPRPRPRPLYWPRP | -0.319
41 | RRIRRRPPRLPRPRPRPHNEPRP | -0.0783
42 | RRIRPRPPRLPRPRPRPKWPPRP | -0.0466
43 | RRIRDRPPRLPRPRPRPAFMPRP | 0.699
44 | RRIRQRPPRLPRPRPRPFELPRP | -0.113
45 | RRIRPRPPRLPRPRPRPPERPRP | 0.322
46 | RRIRARPPRLPRPRPRPRSCPRP | 0.306
47 | RRIRIRPPRLPRPRPRPLHWPRP | -0.138
48 | RRIRMRPPRLPRPRPRPTCNPRP | -0.0778
49 | RRIRYRPPRLPRPRPRPFNDPRP | -0.102
50 | RRIRYRPPRLPRPRPRPHPRPRP | -0.392

Row | Sequence | shrunken log2 fold change
51 | RRIRERPPRLPRPRPRPLHKPRP | -0.0653
52 | RRIRKRPPRLPRPRPRPYIPPRP | -0.651
53 | RRIRHRPPRLPRPRPRPMPWPRP | -0.032
54 | RRIRPRPPRLPRPRPRPGPCPRP | 0.363
55 | RRIRERPPRLPRPRPRPDKMPRP | -0.0703
56 | RRIRVRPPRLPRPRPRPWETPRP | 0.0394
57 | RRIRGRPPRLPRPRPRPPECPRP | 0.483
58 | RRIRARPPRLPRPRPRPMIRPRP | -0.388
59 | RRIRQRPPRLPRPRPRPTPYPRP | -0.266
60 | RRIRWRPPRLPRPRPRPDAEPRP | 1.89
61 | RRIRQRPPRLPRPRPRPSNCPRP | -0.136
62 | RRIRHRPPRLPRPRPRPHPCPRP | -0.612
63 | RRIRFRPPRLPRPRPRPRIVPRP | -0.267
64 | RRIRVRPPRLPRPRPRPESMPRP | -0.149
65 | RRIRSRPPRLPRPRPRPWSWPRP | 0.405
66 | RRIRMRPPRLPRPRPRPIPTPRP | 0.0467
67 | RRIRNRPPRLPRPRPRPQWGPRP | -0.0138
68 | RRIRKRPPRLPRPRPRPHFPPRP | 0.179
69 | RRIRLRPPRLPRPRPRPRHMPRP | -0.287
70 | RRIRPRPPRLPRPRPRPEAHPRP | 0.0215
71 | RRIRYRPPRLPRPRPRPKIHPRP | -1.18
72 | RRIRYRPPRLPRPRPRPSENPRP | -0.235
73 | RRIRVRPPRLPRPRPRPKDNPRP | -0.438
74 | RRIRVRPPRLPRPRPRPYMQPRP | -0.547
75 | RRIRPRPPRLPRPRPRPYGLPRP | -0.857

Row | Sequence | shrunken log2 fold change
76 | RRIRCRPPRLPRPRPRPKQDPRP | 0.0895
77 | RRIRVRPPRLPRPRPRPQMAPRP | -0.302
78 | RRIRDRPPRLPRPRPRPVYVPRP | -0.563
79 | RRIRQRPPRLPRPRPRPQKEPRP | -0.00507
80 | RRIRKRPPRLPRPRPRPREKPRP | -0.107
81 | RRIRWRPPRLPRPRPRPDDWPRP | 0.288
82 | RRIRLRPPRLPRPRPRPTNEPRP | -0.127
83 | RRIRNRPPRLPRPRPRPGDFPRP | 0.264
84 | RRIRCRPPRLPRPRPRPRSSPRP | -0.138
85 | RRIRSRPPRLPRPRPRPFLYPRP | -0.442
86 | RRIRNRPPRLPRPRPRPAFVPRP | 0.154
87 | RRIRTRPPRLPRPRPRPTEPPRP | 0.045
88 | RRIRPRPPRLPRPRPRPVVLPRP | 0.00791
89 | RRIRCRPPRLPRPRPRPTFKPRP | -0.148
90 | RRIRCRPPRLPRPRPRPPFGPRP | 0.213
91 | RRIRGRPPRLPRPRPRPLFSPRP | 0.113
92 | RRIRFRPPRLPRPRPRPAGGPRP | 0.382
93 | RRIRARPPRLPRPRPRPWKCPRP | 0.0662
94 | RRIRFRPPRLPRPRPRPGAQPRP | 0.247
95 | RRIRPRPPRLPRPRPRPAGRPRP | 0.395
96 | RRIRPRPPRLPRPRPRPHALPRP | -0.376
97 | RRIRKRPPRLPRPRPRPEYIPRP | -0.367
98 | RRIRARPPRLPRPRPRPMTNPRP | 0.178
99 | RRIRQRPPRLPRPRPRPYWRPRP | 0.0113
100 | RRIRHRPPRLPRPRPRPAQLPRP | -0.3

Row | Sequence | shrunken log2 fold change
101 | RRIRDRPPRLPRPRPRPCMQPRP | -0.0524
102 | RRIRSRPPRLPRPRPRPKHLPRP | -0.466
103 | RRIRERPPRLPRPRPRPYRCPRP | -0.0874
104 | RRIRSRPPRLPRPRPRPARKPRP | 0.213
105 | RRIRLRPPRLPRPRPRPWGMPRP | -0.0457
106 | RRIRCRPPRLPRPRPRPESCPRP | -0.0297
107 | RRIRIRPPRLPRPRPRPKNRPRP | -0.26
108 | RRIRGRPPRLPRPRPRPTIVPRP | 0.779
109 | RRIRRRPPRLPRPRPRPDRIPRP | 0.14
110 | RRIRERPPRLPRPRPRPTPEPRP | 0.122
111 | RRIRCRPPRLPRPRPRPAEIPRP | -0.0903
112 | RRIRERPPRLPRPRPRPWAMPRP | -0.129
113 | RRIRNRPPRLPRPRPRPMKNPRP | -0.238
114 | RRIRARPPRLPRPRPRPHWAPRP | -0.0191
115 | RRIRCRPPRLPRPRPRPVVQPRP | -0.235
116 | RRIRVRPPRLPRPRPRPFRHPRP | -0.185
117 | RRIRRRPPRLPRPRPRPTWVPRP | 0.275
118 | RRIRTRPPRLPRPRPRPSLNPRP | -0.555
119 | RRIRSRPPRLPRPRPRPVLTPRP | -0.0627
120 | RRIRKRPPRLPRPRPRPDESPRP | 0.0701
121 | RRIRDRPPRLPRPRPRPCNIPRP | -0.228
122 | RRIRERPPRLPRPRPRPAHPPRP | -0.0581
123 | RRIRGRPPRLPRPRPRPMQYPRP | -0.21
124 | RRIRKRPPRLPRPRPRPHLSPRP | 0.0468
125 | RRIRARPPRLPRPRPRPQDIPRP | -0.15

Row | Sequence | shrunken log2 fold change
126 | RRIRLRPPRLPRPRPRPVHIPRP | -0.182
127 | RRIRWRPPRLPRPRPRPVKYPRP | -0.632
128 | RRIRSRPPRLPRPRPRPSTVPRP | -0.353
129 | RRIRFRPPRLPRPRPRPDSEPRP | 0.104
130 | RRIRLRPPRLPRPRPRPDHRPRP | -0.041
131 | RRIRTRPPRLPRPRPRPVTIPRP | -0.0419
132 | RRIRDRPPRLPRPRPRPTCFPRP | 0.0704
133 | RRIRHRPPRLPRPRPRPYFWPRP | -0.258
134 | RRIRGRPPRLPRPRPRPMLQPRP | 0.324
135 | RRIRSRPPRLPRPRPRPHCFPRP | 0.111
136 | RRIRRRPPRLPRPRPRPDDKPRP | 0.0703
137 | RRIRDRPPRLPRPRPRPFCFPRP | 0.265
138 | RRIRPRPPRLPRPRPRPACMPRP | 0.165
139 | RRIRRRPPRLPRPRPRPKWYPRP | 0.0824
140 | RRIRSRPPRLPRPRPRPWMKPRP | -0.00765
141 | RRIRFRPPRLPRPRPRPNRQPRP | -0.564
142 | RRIRKRPPRLPRPRPRPGYMPRP | -0.144
143 | RRIRQRPPRLPRPRPRPYITPRP | -0.0324
144 | RRIRCRPPRLPRPRPRPQYHPRP | -0.425
145 | RRIRKRPPRLPRPRPRPMPIPRP | 0.0778
146 | RRIRQRPPRLPRPRPRPLNWPRP | -0.133
147 | RRIRTRPPRLPRPRPRPMHTPRP | 0.0134
148 | RRIRKRPPRLPRPRPRPMDTPRP | 0.336
149 | RRIRNRPPRLPRPRPRPFAMPRP | -0.177
150 | RRIRFRPPRLPRPRPRPQHAPRP | -0.202
